Results as given in article PMC10491619.

Target: Exchange Protein Activated by cAMP 1, purified recombinant wild type
Assay: phase separation measured by centrifugation and A280 of the cleared supernatant; purified protein alone, with 30 uM cAMP; 5-25 uM protein at 50-250 mM NaCl, 25 mM Tris-HCl pH 8.8, 5 mM MgCl2; 20 °C, 15 min; 16,900 x g, 30 min

Exchange Protein Activated by cAMP 1, purified recombinant wild type, sequence (O95398 whole entry): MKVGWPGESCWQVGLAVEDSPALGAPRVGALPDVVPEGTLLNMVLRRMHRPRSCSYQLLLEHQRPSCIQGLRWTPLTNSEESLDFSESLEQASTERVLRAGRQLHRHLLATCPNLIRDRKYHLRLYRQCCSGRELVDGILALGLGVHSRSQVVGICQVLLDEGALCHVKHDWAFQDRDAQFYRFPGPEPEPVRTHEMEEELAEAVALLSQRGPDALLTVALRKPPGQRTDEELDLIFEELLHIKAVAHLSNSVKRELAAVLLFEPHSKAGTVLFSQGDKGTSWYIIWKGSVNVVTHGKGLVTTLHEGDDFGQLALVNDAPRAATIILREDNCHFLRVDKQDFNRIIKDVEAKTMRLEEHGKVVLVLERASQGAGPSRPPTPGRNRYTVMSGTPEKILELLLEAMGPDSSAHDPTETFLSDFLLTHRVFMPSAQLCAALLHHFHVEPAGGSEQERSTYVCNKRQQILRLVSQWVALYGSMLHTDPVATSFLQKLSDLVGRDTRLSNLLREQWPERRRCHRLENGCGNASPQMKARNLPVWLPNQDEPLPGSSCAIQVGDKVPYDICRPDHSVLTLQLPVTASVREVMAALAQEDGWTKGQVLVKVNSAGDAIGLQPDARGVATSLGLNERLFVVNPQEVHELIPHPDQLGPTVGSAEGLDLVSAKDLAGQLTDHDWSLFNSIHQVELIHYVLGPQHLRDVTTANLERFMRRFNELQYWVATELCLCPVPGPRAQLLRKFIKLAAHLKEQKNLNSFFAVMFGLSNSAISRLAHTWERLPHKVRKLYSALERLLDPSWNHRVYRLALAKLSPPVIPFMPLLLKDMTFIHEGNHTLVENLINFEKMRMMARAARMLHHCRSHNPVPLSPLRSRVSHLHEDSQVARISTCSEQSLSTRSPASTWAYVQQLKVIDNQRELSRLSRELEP

How did the condensation ratio +cAMP/-cAMP at 150 mM salt turn out when “Exchange Protein Activated by cAMP 1, purified recombinant wild type (natural protein)” was run?
The condensation ratio +cAMP/-cAMP at 150 mM salt was 2.5.

What about the percent of protein in condensates (150 mM salt, with cAMP) of the same substance?
The percent of protein in condensates (150 mM salt, with cAMP) was 50%.
